Results taken from patent publication US20040265963A1 (UNIVERSITY OF FLORIDA RESEARCH FOUNDATION, published 2004).
Ends that are not written are not given here. * marks the point of attachment. Biotin = O=C1N[C@H]2[C@H](CS[C@H]2CCCCC(=O)*)N1

Tests used:
Experiment in all cases: ELISA, biotinylated JAK2 WT on plate-coated control peptide (FIG. 1A)
[1] = target: T1, VEGFR peptide (vascular endothelial growth factor receptor autophosphorylation peptide VEGFR 1208-1222)
T1 construct: Control peptide
T1 peptide: SSDVRYVNAFKFM

[2] = target: T2, CDK-2 cyclin box peptide (cyclin-dependent kinase, cyclin box peptide 41-61)
T2 construct: Control peptide; also called CDK 41-61
T2 peptide: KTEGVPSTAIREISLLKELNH

MuIFN-γ(95-125) peptide = target: T3, MuIFN-γ(95-125) peptide (murine)
T3 construct: Control peptide; numbering is on the mature form of murine IFN-γ
T3 peptide: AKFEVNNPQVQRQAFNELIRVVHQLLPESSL

Measured: binding result

B1: biotinylated JAK2 WT peptide (JAK2 autophosphorylation peptide, residues 1001-1013, LPQDKEYYKVKEP) (peptide)
peptide: Biotin-LPQDKEYYKVKEP
notes: Synthetic peptide, biotin incorporated at the N-terminus during synthesis; not phosphorylated at Y1007; also called wild type JAK2 peptide; unphosphorylated JAK2 WT
no binding: [1] | [2] | MuIFN-γ(95-125) peptide
